# From paper PMC4865440
# Target: recombinant gp120 from HIV-1 strain IIIB (HIV-1 strain IIIB) (UniProt P04578)
Substance,"EC50 of whole-cell HIV neutralization assay (XTT viability of CEM-SS cells challenged with HIV-1RF), purified ^ECGRFT [nM]","EC50 of whole-cell HIV neutralization assay (XTT viability of CEM-SS cells challenged with HIV-1RF), purified ^OSGRFT [nM]"
griffithsin produced in Escherichia coli (^ECGRFT) (from UniProt P84801 1-121) (natural protein),0.33,–
"griffithsin produced in rice endosperm (^OSGRFT), His6-tagged (from UniProt P84801 1-121) (natural protein)",–,0.27
